Consider one molecule from US20170007671A1.

The test concerns the target Neuregulin-1 receptors (ErbB3 or ErbB4) on MCF-7 human breast cancer cells. Briefly: cell-based or functional assay.

B1: recombinant human Neuregulin-1 (rhNRG-1) (ligand)
chain: SHLVKCAEKEKTFCVNGGECFMVKDLSNPSRYLCKCPNEFTGDRCQNYVMASFYKAEELYQ
Take B1: the Biological activity; ErbB2 phosphorylation ELISA on MCF-7 cell lysates; Reference Sample (0 g/L HSA) amounted to 1500 U, the Biological activity; ErbB2 phosphorylation ELISA on MCF-7 cell lysates; Sample A (0.5 g/L HSA) turned out to be 1730 U, the Biological activity; ErbB2 phosphorylation ELISA on MCF-7 cell lysates; Sample B (2 g/L HSA) was 3500 U and the Biological activity; ErbB2 phosphorylation ELISA on MCF-7 cell lysates; Sample C (8 g/L HSA) came to 4000 U. For the same molecule, the EC50 value; ErbB2 phosphorylation ELISA on MCF-7 cell lysates; Reference Sample (0 g/L HSA) was 0.0505, the EC50 value; ErbB2 phosphorylation ELISA on MCF-7 cell lysates; Sample A (0.5 g/L HSA) was 0.0439, the EC50 value; ErbB2 phosphorylation ELISA on MCF-7 cell lysates; Sample B (2 g/L HSA) came to 0.0217 and the EC50 value; ErbB2 phosphorylation ELISA on MCF-7 cell lysates; Sample C (8 g/L HSA) turned out to be 0.0189. Also, the OD50 value; ErbB2 phosphorylation ELISA on MCF-7 cell lysates; Reference Sample (0 g/L HSA) is 0.391 OD, the OD50 value; ErbB2 phosphorylation ELISA on MCF-7 cell lysates; Sample A (0.5 g/L HSA) was determined as 0.393 OD, the OD50 value; ErbB2 phosphorylation ELISA on MCF-7 cell lysates; Sample B (2 g/L HSA) came to 0.406 OD and the OD50 value; ErbB2 phosphorylation ELISA on MCF-7 cell lysates; Sample C (8 g/L HSA) is 0.424 OD. The molecule also came in with a Standard sample EC50/sample EC50; ErbB2 phosphorylation ELISA on MCF-7 cell lysates; Sample A (0.5 g/L HSA) against Reference Sample of 1.15, a Standard sample EC50/sample EC50; ErbB2 phosphorylation ELISA on MCF-7 cell lysates; Sample B (2 g/L HSA) against Reference Sample of 2.33, a Standard sample EC50/sample EC50; ErbB2 phosphorylation ELISA on MCF-7 cell lysates; Sample C (8 g/L HSA) against Reference Sample of 2.67 and a specific activity; ErbB2 phosphorylation ELISA on MCF-7 cell lysates; Reference Sample (0 g/L HSA) of 6000 U/mg. In addition, the specific activity; ErbB2 phosphorylation ELISA on MCF-7 cell lysates; Sample A (0.5 g/L HSA) is 6900 U/mg, the specific activity; ErbB2 phosphorylation ELISA on MCF-7 cell lysates; Sample B (2 g/L HSA) came out at 14000 U/mg and the specific activity; ErbB2 phosphorylation ELISA on MCF-7 cell lysates; Sample C (8 g/L HSA) turned out to be 16000 U/mg.
